In patent US20200024360A1 (Janssen / Centocor, published 2020):

Molecular target: human PSMA (prostate specific membrane antigen), full length (human, UniProt Q04609 1-750)
Assay: cell-based or functional assay

B1: PS3B27 (bispecific antibody, human IgG4 S228P, kappa, lambda, F234A L235A)
heavy 1: not shown
light 1: not shown
heavy 2: EVQLVESGGGLVQPGGSLRLSCAASGFTFNTYAMNWVRQAPGKGLEWVARIRSKYNNYATYYAASVKGRFTISRDDSKNSLYLQMNSLKTEDTAVYYCARHGNFGNSYVSWFAYWGQGTLVTVSSASTKGPSVFPLAPCSRSTSESTAALGCLVKDYFPEPVTVSWNSGALTSGVHTFPAVLQSSGLYSLSSVVTVPSSSLGTKTYTCNVDHKPSNTKVDKRVESKYGPPCPPCPAPEAAGGPSVFLFPPKPKDTLMISRTPEVTCVVVDVSQEDPEVQFNWYVDGVEVHNAKTKPREEQFNSTYRVVSVLTVLHQDWLNGKEYKCKVSNKGLPSSIEKTISKAKGQPREPQVYTLPPSQEEMTKNQVSLTCLVKGFYPSDIAVEWESNGQPENNYKTTPPVLDSDGSFLLYSKLTVDKSRWQEGNVFSCSVMHEALHNHYTQKSLSLSLGK
light 2: QTVVTQEPSLTVSPGGTVTLTCRSSTGAVTTSNYANWVQQKPGQAPRGLIGGTNKRAPGTPARFSGSLLGGKAALTLSGVQPEDEAEYYCALWYSNLWVFGGGTKLTVLGQPKAAPSVTLFPPSSEELQANKATLVCLISDFYPGAVTVAWKADSSPVKAGVETTTPSKQSNNKYAASSYLSLTPEQWKSHRSYSCQVTHEGSTVEKTVAPTECS
notes: IgG4 PAA; PSMA arm chains first, then CD3 arm (F405L, R409K); also called PSMB127 x CD3B219; PS2B27
  EC50, T-cell dependent cytotoxicity (caspase 3/7), C-42B, donor M2550: 110 pM
  EC50, T-cell dependent cytotoxicity (caspase 3/7), C-42B, donor M5524: 60 pM
  EC50, T-cell dependent cytotoxicity (caspase 3/7), C-42B, donor M5772: 30 pM
  EC50, T-cell dependent cytotoxicity (caspase 3/7), C-42B, donor M7259: 60 pM
  EC50, T-cell dependent cytotoxicity (caspase 3/7), C-42B, donor M7444: 50 pM
  EC50, T-cell dependent cytotoxicity (caspase 3/7), LNCaP FGc, donor M2550: 270 pM
  EC50, T-cell dependent cytotoxicity (caspase 3/7), LNCaP FGc, donor M5524: 90 pM
  EC50, T-cell dependent cytotoxicity (caspase 3/7), LNCaP FGc, donor M5772: 40 pM
  EC50, T-cell dependent cytotoxicity (caspase 3/7), LNCaP FGc, donor M7259: 50 pM
  EC50, T-cell dependent cytotoxicity (caspase 3/7), LNCaP FGc, donor M7444: 90 pM
